This note sets out measurements from patent publication US20100203552.

Data set [1] relates to phosphorylated GST-Bim fusion protein [GST: P08515].
In data set [2] the test system is GST-Bim polypeptide [GST: P08515].
Target sequence in this assay (P08515 whole entry, looked up): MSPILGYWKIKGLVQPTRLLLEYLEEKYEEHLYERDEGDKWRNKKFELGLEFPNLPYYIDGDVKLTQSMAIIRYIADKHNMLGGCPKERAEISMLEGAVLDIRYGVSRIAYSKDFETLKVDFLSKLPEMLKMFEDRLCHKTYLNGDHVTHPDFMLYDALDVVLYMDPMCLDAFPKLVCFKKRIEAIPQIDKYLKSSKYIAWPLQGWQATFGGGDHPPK
Data set [3] deals with GST-Bim polypeptide [GST: P08515]. This is another data set of the same source.
Target sequence in this assay (P08515 whole entry, looked up): as above

Chain of phosphorylated GST-Bim fusion protein [GST: P08515] (P08515 whole entry, looked up, the tested form may be a part): as the sequence (P08515 whole entry, looked up) above

In the case of Myc-tagged TRIM2 (myc-TRIM2), the results for the Bim ubiquitination result in data set [1] and in data set [2] were “addition of active MAPK to the reaction enhanced Bim ubiquitination” and “Incubation of TRIM2 polypeptide with Bim resulted in low levels of Bim ubiquitination”, respectively.

B1: TRIM2 protein from rat brain lysate / rat cortical neuronal cell lysates (protein)
chain: MQRAGSRTAGPTCQWSRMASEGASIPSPVVRQIDKQFLICSICLERYKNPKVLPCLHTFCERCLQNYIPAHSLTLSCPVCRQTSILPEKGVAALQNNFFITNLMDVLQRTPGSNGEDPSILQTVTAVAAGKPLSCPNHDGNVMEFYCQSCETAMCRECTEGEHAEHPTVPLKDVVEQHKASLQVQLDAVNKRLPEIDSALQFISEIIHQLTNQKASIVDDIHSTFDELQKTLNVRKSVLLMELEVNYGLKHKVLQSQLDTLLQGQESIKSCSNFTAQALNHGTETEVLLVKKQMSEKLNELADQDFPLHPRENDQLDFIVETEGLKKSIHNLGTILTTNAVASETVATGEGLRQTIIGQPMSVTITTKDKDGELCKTGNAYLTAELSTPDGSVADGEILDNKNGTYEFLYTVQKEGDFTLSLRLYDQHIRGSPFKLKVIRSADVSPTTEGVKRRVKSPGSGHVKQKAVKRPASMYSTGKRKENPIEDDLIFRVGTKGRNKGEFTNLQGVAASTSGKILIADSNNQCVQIFSNDGQFKSRFGIRGRSPGQLQRPTGVAVHPSGDIIIADYDNKWVSIFSNDGKFKTKIGSGKLMGPKGVSVDRNGHIIVVDNKACCVFIFQPNGKIVTRFGSRGNGDRQFAGPHFAAVNSSNEIIITDFHNHSVKVFNQEGEFMLKFGSNGEGNGQFNAPTGVAVDSNGNIIVADWGNSRIQVFDGSGSFLSYINTSADPLYGPQGLALTSDGHVVVADSGNHCFKVYRYLQ
In the case of B1, the “Bim ubiquitination (anti-ubiquitin immunoblot of immunoprecipitated GST-Bim)” value in data set [3] was “immunodepletion of TRIM2 protein reduces Bim ubiquitination in lysates from preconditioned cells to that of control lysates”.
